The values below come from patent publication US12679878B2, “CRF2 receptor agonists and their use in therapy” (SANOFI, priority 2020, dated 2026).

Starred links: 1 amine or outer side, 2 acyl side, 3 side chain; linkers in the order of their positions; H or OH if unused. Non-standard residues stand in square brackets, D forms with d. Groups on a side chain read outwards from the residue. No end group written: not given here. *: point of attachment. C20 diacid = O=C(O)CCCCCCCCCCCCCCCCCCC(=O)*; C18 diacid = O=C(O)CCCCCCCCCCCCCCCCC(=O)*; γGlu = O=C(O)[C@H](CCC(=O)[*:2])N[*:1]; Palmitoyl = CCCCCCCCCCCCCCCC(=O)*; AEEA = NCCOCCOCC(=O)O; Aib = CC(C)(N)C(=O)O

The experiment addresses human corticotropin-releasing factor 2α (CRF2 α receptor) (human), Q13324. Kind of experiment: cell-based or functional assay.

human corticotropin-releasing factor 2α (CRF2 α receptor) (human), Q13324, sequence (Q13324 20-411): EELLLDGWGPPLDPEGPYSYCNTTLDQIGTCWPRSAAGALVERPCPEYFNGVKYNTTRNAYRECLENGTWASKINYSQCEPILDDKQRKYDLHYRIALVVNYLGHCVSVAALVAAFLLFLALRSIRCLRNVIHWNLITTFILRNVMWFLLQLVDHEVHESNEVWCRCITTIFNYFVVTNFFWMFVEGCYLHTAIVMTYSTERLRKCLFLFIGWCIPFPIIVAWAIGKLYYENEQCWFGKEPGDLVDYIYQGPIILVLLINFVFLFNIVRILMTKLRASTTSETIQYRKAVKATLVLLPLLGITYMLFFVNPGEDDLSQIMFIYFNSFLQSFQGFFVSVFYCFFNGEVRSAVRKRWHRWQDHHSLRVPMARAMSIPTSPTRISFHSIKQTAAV

B1: SEQ ID NO: 169 (peptide)
peptide: Ac-IVLSLD[dV]PIKLK([AEEA-AEEA-γGlu-C18 diacid])QILLEQERQE[Aib]QREQAEKNEQILEQV-NH2
SMILES: CC[C@H](C)[C@H](NC(C)=O)C(=O)N[C@H](C(=O)N[C@@H](CC(C)C)C(=O)N[C@@H](CO)C(=O)N[C@@H](CC(C)C)C(=O)N[C@@H](CC(=O)O)C(=O)N[C@@H](C(=O)N1CCC[C@H]1C(=O)N[C@H](C(=O)N[C@@H](CCCCN)C(=O)N[C@@H](CC(C)C)C(=O)N[C@@H](CCCCNC(=O)COCCOCCNC(=O)COCCOCCNC(=O)CC[C@H](NC(=O)CCCCCCCCCCCCCCCCC(=O)O)C(=O)O)C(=O)N[C@@H](CCC(N)=O)C(=O)N[C@H](C(=O)N[C@@H](CC(C)C)C(=O)N[C@@H](CC(C)C)C(=O)N[C@@H](CCC(=O)O)C(=O)N[C@@H](CCC(N)=O)C(=O)N[C@@H](CCC(=O)O)C(=O)N[C@@H](CCCNC(=N)N)C(=O)N[C@@H](CCC(N)=O)C(=O)N[C@@H](CCC(=O)O)C(=O)NC(C)(C)C(=O)N[C@@H](CCC(N)=O)C(=O)N[C@@H](CCCNC(=N)N)C(=O)N[C@@H](CCC(=O)O)C(=O)N[C@@H](CCC(N)=O)C(=O)N[C@@H](C)C(=O)N[C@@H](CCC(=O)O)C(=O)N[C@@H](CCCCN)C(=O)N[C@@H](CC(N)=O)C(=O)N[C@@H](CCC(=O)O)C(=O)N[C@@H](CCC(N)=O)C(=O)N[C@H](C(=O)N[C@@H](CC(C)C)C(=O)N[C@@H](CCC(=O)O)C(=O)N[C@@H](CCC(N)=O)C(=O)N[C@H](C(N)=O)C(C)C)[C@@H](C)CC)[C@@H](C)CC)[C@@H](C)CC)C(C)C)C(C)C
Regarding B1, the EC50 [nM], 0% HSA is 4.01 nM and the EC50 [nM], 0.1% HSA is 98.1 nM.

B2: SEQ ID NO: 168 (peptide)
peptide: Ac-IVLSLD[dV]PIELK([AEEA-AEEA-γGlu-C18 diacid])QILLEQERQK[Aib]QREQAEKNEQILEQV-NH2
SMILES: CC[C@H](C)[C@H](NC(C)=O)C(=O)N[C@H](C(=O)N[C@@H](CC(C)C)C(=O)N[C@@H](CO)C(=O)N[C@@H](CC(C)C)C(=O)N[C@@H](CC(=O)O)C(=O)N[C@@H](C(=O)N1CCC[C@H]1C(=O)N[C@H](C(=O)N[C@@H](CCC(=O)O)C(=O)N[C@@H](CC(C)C)C(=O)N[C@@H](CCCCNC(=O)COCCOCCNC(=O)COCCOCCNC(=O)CC[C@H](NC(=O)CCCCCCCCCCCCCCCCC(=O)O)C(=O)O)C(=O)N[C@@H](CCC(N)=O)C(=O)N[C@H](C(=O)N[C@@H](CC(C)C)C(=O)N[C@@H](CC(C)C)C(=O)N[C@@H](CCC(=O)O)C(=O)N[C@@H](CCC(N)=O)C(=O)N[C@@H](CCC(=O)O)C(=O)N[C@@H](CCCNC(=N)N)C(=O)N[C@@H](CCC(N)=O)C(=O)N[C@@H](CCCCN)C(=O)NC(C)(C)C(=O)N[C@@H](CCC(N)=O)C(=O)N[C@@H](CCCNC(=N)N)C(=O)N[C@@H](CCC(=O)O)C(=O)N[C@@H](CCC(N)=O)C(=O)N[C@@H](C)C(=O)N[C@@H](CCC(=O)O)C(=O)N[C@@H](CCCCN)C(=O)N[C@@H](CC(N)=O)C(=O)N[C@@H](CCC(=O)O)C(=O)N[C@@H](CCC(N)=O)C(=O)N[C@H](C(=O)N[C@@H](CC(C)C)C(=O)N[C@@H](CCC(=O)O)C(=O)N[C@@H](CCC(N)=O)C(=O)N[C@H](C(N)=O)C(C)C)[C@@H](C)CC)[C@@H](C)CC)[C@@H](C)CC)C(C)C)C(C)C
As for B2, the EC50 [nM], 0% HSA was determined as 13.9 nM.

B3: SEQ ID NO: 20 (peptide)
peptide: IVLSLD[dV]PTKLK([γGlu-Palmitoyl])QKLLKQERQRK[Aib]REQAEKNKRILERV-NH2
modifications: N-terminus assumed
SMILES: CCCCCCCCCCCCCCCC(=O)N[C@@H](CCC(=O)NCCCC[C@H](NC(=O)[C@H](CC(C)C)NC(=O)[C@H](CCCCN)NC(=O)[C@@H](NC(=O)[C@@H]1CCCN1C(=O)[C@H](NC(=O)[C@H](CC(=O)O)NC(=O)[C@H](CC(C)C)NC(=O)[C@H](CO)NC(=O)[C@H](CC(C)C)NC(=O)[C@@H](NC(=O)[C@@H](N)[C@@H](C)CC)C(C)C)C(C)C)[C@@H](C)O)C(=O)N[C@@H](CCC(N)=O)C(=O)N[C@@H](CCCCN)C(=O)N[C@@H](CC(C)C)C(=O)N[C@@H](CC(C)C)C(=O)N[C@@H](CCCCN)C(=O)N[C@@H](CCC(N)=O)C(=O)N[C@@H](CCC(=O)O)C(=O)N[C@@H](CCCNC(=N)N)C(=O)N[C@@H](CCC(N)=O)C(=O)N[C@@H](CCCNC(=N)N)C(=O)N[C@@H](CCCCN)C(=O)NC(C)(C)C(=O)N[C@@H](CCCNC(=N)N)C(=O)N[C@@H](CCC(=O)O)C(=O)N[C@@H](CCC(N)=O)C(=O)N[C@@H](C)C(=O)N[C@@H](CCC(=O)O)C(=O)N[C@@H](CCCCN)C(=O)N[C@@H](CC(N)=O)C(=O)N[C@@H](CCCCN)C(=O)N[C@@H](CCCNC(=N)N)C(=O)N[C@H](C(=O)N[C@@H](CC(C)C)C(=O)N[C@@H](CCC(=O)O)C(=O)N[C@@H](CCCNC(=N)N)C(=O)N[C@H](C(N)=O)C(C)C)[C@@H](C)CC)C(=O)O
For B3, the EC50 [nM], 0% HSA was found to be 0.01 nM.

B4: SEQ ID NO: 171 (peptide)
peptide: IVLSLD[dV]PIKLK([AEEA-AEEA-γGlu-γGlu-C18 diacid])QILLKQERQK[Aib]QREQAEKNKQILAQV-NH2
modifications: N-terminus assumed
SMILES: CC[C@H](C)[C@H](N)C(=O)N[C@H](C(=O)N[C@@H](CC(C)C)C(=O)N[C@@H](CO)C(=O)N[C@@H](CC(C)C)C(=O)N[C@@H](CC(=O)O)C(=O)N[C@@H](C(=O)N1CCC[C@H]1C(=O)N[C@H](C(=O)N[C@@H](CCCCN)C(=O)N[C@@H](CC(C)C)C(=O)N[C@@H](CCCCNC(=O)COCCOCCNC(=O)COCCOCCNC(=O)CC[C@H](NC(=O)CC[C@H](NC(=O)CCCCCCCCCCCCCCCCC(=O)O)C(=O)O)C(=O)O)C(=O)N[C@@H](CCC(N)=O)C(=O)N[C@H](C(=O)N[C@@H](CC(C)C)C(=O)N[C@@H](CC(C)C)C(=O)N[C@@H](CCCCN)C(=O)N[C@@H](CCC(N)=O)C(=O)N[C@@H](CCC(=O)O)C(=O)N[C@@H](CCCNC(=N)N)C(=O)N[C@@H](CCC(N)=O)C(=O)N[C@@H](CCCCN)C(=O)NC(C)(C)C(=O)N[C@@H](CCC(N)=O)C(=O)N[C@@H](CCCNC(=N)N)C(=O)N[C@@H](CCC(=O)O)C(=O)N[C@@H](CCC(N)=O)C(=O)N[C@@H](C)C(=O)N[C@@H](CCC(=O)O)C(=O)N[C@@H](CCCCN)C(=O)N[C@@H](CC(N)=O)C(=O)N[C@@H](CCCCN)C(=O)N[C@@H](CCC(N)=O)C(=O)N[C@H](C(=O)N[C@@H](CC(C)C)C(=O)N[C@@H](C)C(=O)N[C@@H](CCC(N)=O)C(=O)N[C@H](C(N)=O)C(C)C)[C@@H](C)CC)[C@@H](C)CC)[C@@H](C)CC)C(C)C)C(C)C
The molecule B4 had an EC50 [nM], 0% HSA of 0.17 nM and an EC50 [nM], 0.1% HSA of 2.62 nM.

B5: SEQ ID NO: 170 (peptide)
peptide: Ac-IVLSLD[dV]PIELK([AEEA-AEEA-γGlu-C18 diacid])QILLEQERQE[Aib]QREQAEKNEQILEQV-NH2
SMILES: CC[C@H](C)[C@H](NC(C)=O)C(=O)N[C@H](C(=O)N[C@@H](CC(C)C)C(=O)N[C@@H](CO)C(=O)N[C@@H](CC(C)C)C(=O)N[C@@H](CC(=O)O)C(=O)N[C@@H](C(=O)N1CCC[C@H]1C(=O)N[C@H](C(=O)N[C@@H](CCC(=O)O)C(=O)N[C@@H](CC(C)C)C(=O)N[C@@H](CCCCNC(=O)COCCOCCNC(=O)COCCOCCNC(=O)CC[C@H](NC(=O)CCCCCCCCCCCCCCCCC(=O)O)C(=O)O)C(=O)N[C@@H](CCC(N)=O)C(=O)N[C@H](C(=O)N[C@@H](CC(C)C)C(=O)N[C@@H](CC(C)C)C(=O)N[C@@H](CCC(=O)O)C(=O)N[C@@H](CCC(N)=O)C(=O)N[C@@H](CCC(=O)O)C(=O)N[C@@H](CCCNC(=N)N)C(=O)N[C@@H](CCC(N)=O)C(=O)N[C@@H](CCC(=O)O)C(=O)NC(C)(C)C(=O)N[C@@H](CCC(N)=O)C(=O)N[C@@H](CCCNC(=N)N)C(=O)N[C@@H](CCC(=O)O)C(=O)N[C@@H](CCC(N)=O)C(=O)N[C@@H](C)C(=O)N[C@@H](CCC(=O)O)C(=O)N[C@@H](CCCCN)C(=O)N[C@@H](CC(N)=O)C(=O)N[C@@H](CCC(=O)O)C(=O)N[C@@H](CCC(N)=O)C(=O)N[C@H](C(=O)N[C@@H](CC(C)C)C(=O)N[C@@H](CCC(=O)O)C(=O)N[C@@H](CCC(N)=O)C(=O)N[C@H](C(N)=O)C(C)C)[C@@H](C)CC)[C@@H](C)CC)[C@@H](C)CC)C(C)C)C(C)C
B5 yielded an EC50 [nM], 0% HSA of 62.1 nM.

B6: SEQ ID NO: 172 (peptide)
peptide: IVLSLD[dV]PIKLK([AEEA-AEEA-γGlu-γGlu-C20 diacid])QILLKQERQK[Aib]QREQAEKNKQILAQV-NH2
modifications: N-terminus assumed
SMILES: CC[C@H](C)[C@H](N)C(=O)N[C@H](C(=O)N[C@@H](CC(C)C)C(=O)N[C@@H](CO)C(=O)N[C@@H](CC(C)C)C(=O)N[C@@H](CC(=O)O)C(=O)N[C@@H](C(=O)N1CCC[C@H]1C(=O)N[C@H](C(=O)N[C@@H](CCCCN)C(=O)N[C@@H](CC(C)C)C(=O)N[C@@H](CCCCNC(=O)COCCOCCNC(=O)COCCOCCNC(=O)CC[C@H](NC(=O)CC[C@H](NC(=O)CCCCCCCCCCCCCCCCCCC(=O)O)C(=O)O)C(=O)O)C(=O)N[C@@H](CCC(N)=O)C(=O)N[C@H](C(=O)N[C@@H](CC(C)C)C(=O)N[C@@H](CC(C)C)C(=O)N[C@@H](CCCCN)C(=O)N[C@@H](CCC(N)=O)C(=O)N[C@@H](CCC(=O)O)C(=O)N[C@@H](CCCNC(=N)N)C(=O)N[C@@H](CCC(N)=O)C(=O)N[C@@H](CCCCN)C(=O)NC(C)(C)C(=O)N[C@@H](CCC(N)=O)C(=O)N[C@@H](CCCNC(=N)N)C(=O)N[C@@H](CCC(=O)O)C(=O)N[C@@H](CCC(N)=O)C(=O)N[C@@H](C)C(=O)N[C@@H](CCC(=O)O)C(=O)N[C@@H](CCCCN)C(=O)N[C@@H](CC(N)=O)C(=O)N[C@@H](CCCCN)C(=O)N[C@@H](CCC(N)=O)C(=O)N[C@H](C(=O)N[C@@H](CC(C)C)C(=O)N[C@@H](C)C(=O)N[C@@H](CCC(N)=O)C(=O)N[C@H](C(N)=O)C(C)C)[C@@H](C)CC)[C@@H](C)CC)[C@@H](C)CC)C(C)C)C(C)C
As for B6, the EC50 [nM], 0% HSA came to 0.04 nM and the EC50 [nM], 0.1% HSA was 2.76 nM.
